Test results published in PMC4991212 (Cell, 2016).

Molecular target: APC2 (cullin subunit of APC/C) (human, UniProt Q9UJX6 1-822)
Assay: cryo-EM structure

B1: UBE2C (C102A), catalytic Cys only version, in the multiubiquitination trap (enzyme, human, UniProt O00762 1-179, looked up)
chain: MASQNRDPAATSVAAARKGAEPSGGAARGPVGKRLQQELMTLMMSGDKGISAFPESDNLFKWVGTIHGAAGTVYEDLRYKLSLEFPSGYPYNAPTVKFLTPAYHPNVDTQGNICLDILKEKWSALYDVRTILLSIQSLLGEPNIDSPLNTHAAELWKNPTAFKKYLQETYSKQVTSQEP
modifications: active site Cys joined to the TMEA crosslinker
B1: binds.
